In patent publication US20250049896A1 (Regeneron, published 2025):
Where a chain is given by its changes, count along the chain named. One block for each binder: values may come before it.

Assays:
[1] = target: T1, hmm.hTfRC (REGN2431), human transferrin receptor extracellular domain with hexahistidine-myc-myc tag (human, UniProt P02786 89-760); test: SPR (Biacore), mAb captured on anti-human Fc, 100 nM hTFR-mmh, 25 C
T1 construct: Monomeric recombinant protein, 79210 g/mol; also called hTFR-mmh; His-myc-myc-hTFRC ecto
T1 sequence (P02786 other isoform, or with tags, fused parts or gaps): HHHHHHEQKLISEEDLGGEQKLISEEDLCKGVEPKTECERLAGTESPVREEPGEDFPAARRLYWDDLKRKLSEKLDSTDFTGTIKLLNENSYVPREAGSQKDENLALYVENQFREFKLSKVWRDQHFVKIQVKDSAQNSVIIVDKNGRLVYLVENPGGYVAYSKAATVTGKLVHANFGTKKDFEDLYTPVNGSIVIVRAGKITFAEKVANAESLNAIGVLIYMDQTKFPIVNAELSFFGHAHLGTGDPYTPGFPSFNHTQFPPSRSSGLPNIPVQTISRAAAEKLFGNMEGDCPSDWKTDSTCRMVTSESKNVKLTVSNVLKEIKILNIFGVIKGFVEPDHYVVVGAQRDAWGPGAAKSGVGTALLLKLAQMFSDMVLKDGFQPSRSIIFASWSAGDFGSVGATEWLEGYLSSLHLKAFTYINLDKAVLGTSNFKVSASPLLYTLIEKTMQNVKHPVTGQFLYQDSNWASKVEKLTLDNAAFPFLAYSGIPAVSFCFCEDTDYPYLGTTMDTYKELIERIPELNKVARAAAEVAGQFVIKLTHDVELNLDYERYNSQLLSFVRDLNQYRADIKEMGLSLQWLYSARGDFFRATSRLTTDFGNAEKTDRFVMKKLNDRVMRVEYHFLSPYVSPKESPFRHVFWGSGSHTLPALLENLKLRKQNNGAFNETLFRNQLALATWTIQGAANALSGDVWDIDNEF

[2] = target: T2, mf TFRC ecto-mmh (REGN2054), monomeric monkey (cyno) Tfrc ectodomain with C-terminal myc-myc-hexahistidine tag (monkey (cyno), Macaca fascicularis, UniProt H9EXL1 89-760); test: SPR (Biacore), mAb captured on anti-human Fc, 100 nM mfTfR-mmh, 25 C
T2 construct: range 89-760; also called mfTfR-mmh; mfTFR-mmh
T2 sequence (chain, as listed by the source): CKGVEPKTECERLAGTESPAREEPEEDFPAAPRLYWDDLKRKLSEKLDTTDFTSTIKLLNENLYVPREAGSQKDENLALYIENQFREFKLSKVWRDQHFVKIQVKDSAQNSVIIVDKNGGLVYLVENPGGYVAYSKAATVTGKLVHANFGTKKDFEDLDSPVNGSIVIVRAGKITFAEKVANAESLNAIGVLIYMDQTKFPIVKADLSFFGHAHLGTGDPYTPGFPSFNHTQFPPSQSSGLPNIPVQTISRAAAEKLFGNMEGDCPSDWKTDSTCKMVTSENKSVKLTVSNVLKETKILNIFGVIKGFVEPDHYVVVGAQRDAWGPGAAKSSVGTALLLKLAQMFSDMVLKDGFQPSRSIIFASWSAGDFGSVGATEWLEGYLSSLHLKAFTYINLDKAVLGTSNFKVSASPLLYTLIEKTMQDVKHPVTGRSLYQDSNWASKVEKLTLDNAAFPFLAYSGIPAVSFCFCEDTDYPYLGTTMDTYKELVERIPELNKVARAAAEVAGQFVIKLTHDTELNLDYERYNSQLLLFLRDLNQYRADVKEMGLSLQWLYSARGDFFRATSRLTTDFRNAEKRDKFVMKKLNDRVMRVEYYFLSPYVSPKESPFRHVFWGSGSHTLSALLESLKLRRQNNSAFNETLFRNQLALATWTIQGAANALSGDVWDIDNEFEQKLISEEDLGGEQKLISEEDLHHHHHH

[3] = target: T1, hmm.hTfRC (REGN2431), human transferrin …; test: SPR (Biacore), mAb from CHO supernatant captured on anti-human Fc, 100 nM hTFR-mmh injected, 25 C
[4] = target: T2, mf TFRC ecto-mmh (REGN2054), monomeric …; test: SPR (Biacore), mAb from CHO supernatant captured on anti-human Fc, 100 nM mfTfR-mmh injected, 25 C
Protocol: (§1) Biacore binding kinetics assays were conducted for the interaction of 32 anti-human TfR IgG1 monoclonal antibodies from CHO supernatants with TfR reagents at 25° C.
(§2) Equilibrium dissociation constants (KD) for the interaction of anti-TfR monoclonal antibodies with human and fascicularis monkey TfR ecto domain recombinant proteins were determined using a real-time surface plasmon resonance (SPR) based Biacore S200 biosensor. All binding studies were performed in 10 mM HEPES, 150 mM NaCl, 3 mM EDTA, and 0.05% v/v surfactant Tween-20, pH 7.4 (HBS-EP) running buffer at 37° C. The Biacore CM5 sensor surface was first derivatized by amine coupling with a monoclonal mouse anti-human Fc antibody (REGN2567) followed by a step to capture anti-TfR monoclonal antibodies in CHO conditioned media. […] The dissociation of TfR bound to anti-TfR monoclonal antibodies was monitored for 3 minutes in HBS-EP running buffer. At the end of each cycle, the anti-TfR monoclonal antibodies capture surface was regenerated using a 12-sec injection of 20 mM H₃PO₄. The association rate (ka) and dissociation rate (kd) were determined by fitting the real-time binding sensorgrams to a 1:1 binding model with mass transport limitation using Scrubber 2.0 c software. The dissociation equilibrium constant (KD) and dissociative half-life (t½) were calculated from the kinetic rate constants as: […]

[5] = target: T1, hmm.hTfRC (REGN2431), human transferrin …; test: SPR (Biacore), mAb captured on anti-human Fc, 100 nM hTFR-mmh, 25 C; kd fixed at 1.00E-05
Protocol: as §2, with “All binding studies were performed in 10 mM HEPES, 150 mM NaCl, 3 mM EDTA, and 0.05% v/v surfactant Tween-20, pH 7.4 (HBS-EP) running buffer at 37° C.” left out

[6] = target: T3, REGN2431 (hmm.hTfRC); monomeric human Tfrc ectodomain, amino acids C89-F760, with N-terminal … (human, UniProt P02786 89-760); test: SPR (Biacore), mAb from CHO supernatant captured on anti-human Fc, 100 nM hTfR-mmh injected, 25 C
T3 construct: also called hTfR-mmh; hTFR-mmh
T3 sequence (P02786 other isoform, or with tags, fused parts or gaps): as the sequence (P02786 other isoform, or with tags, fused parts or gaps) above
Protocol: as §1, §2

[7] = target: T4, REGN2054 (mf TFRC ecto-mmh); monomeric monkey (cyno) Tfrc ectodomain, amino acids C89-F760, with C-terminal … (cynomolgus monkey (Macaca fascicularis), UniProt H9EXL1 89-760 (rhesus entry)); test: SPR (Biacore), mAb from CHO supernatant captured on anti-human Fc, 100 nM mfTFR-mmh injected, 25 C
T4 construct: range 89-760; also called mfTFR-mmh; mfTfR-mmh
T4 sequence (chain, as listed by the source): as the sequence (chain, as listed by the source) above
Protocol: as §1, §2

B2: 31863B (antibody, human IgG1, kappa, V domains shown)
VH: EVQLVESGGGLVQPGGSLRLSCAASGFTFNSYAMTWVRQAPGKGLEWVSFIGGSTGNTYYAGSVKGRFTISSDNSKKTLYLQMNSLRAEDTAVYYCAKGGAARRMEYFQHWGQGTLVTVSS
VL: DIQMTQSPSSLSASIGDRVTITCRASQGISNYLAWYQQKPGKVPKLLIYAASTLQSGVPSRFSGSGSGTDFTLTISSLQPEDVATYYCQNHNSVPLTFGGGTKVEIKR
notes: Tested as bivalent human IgG1 from CHO primary supernatant
100 nM Ag Bound (RU) [1]: 1080 RU
koff [1]: < 1e-05 s⁻¹
kon [1]: 152000 M⁻¹ s⁻¹
t½ [1]: > 19.2 h
100 nM Ag Bound (RU) [2]: 145 RU
Kd [2]: 18.3 nM
koff [2]: 0.00298 s⁻¹
kon [2]: 163000 M⁻¹ s⁻¹
t½ [2]: 0.065 h
Kd [5]: ≤ 0.0656 nM

B5: 12795B (antibody, human IgG1, kappa, V domains shown)
VH: EVQLVESGGGLVQPGGSLRLSCATSGFTFTSYDMKWVRQAPGLGLEWVSAISGSGGNTYYADSVKGRFTISRDNSRNTLYLQMNSLRAEDTAVYYCTRSHDFGAFDYFDYWGQGTLVTVSS
VL: DIQMTQSPSSLSASVGDRVTITCRASQGIRDHFGWYQQKPGKAPKRLIYAASSLHSGVPSRFSGSGSGTEFTLTISSLQPEDFATYYCLQYDTYPLTFGGGTKVEIKR
notes: as for B2
100 nM Ag Bound (RU) [1]: 883 RU
koff [1]: < 1e-05 s⁻¹
kon [1]: 122000 M⁻¹ s⁻¹
t½ [1]: > 19.2 h
100 nM Ag Bound (RU) [2]: 364 RU
Kd [2]: 1.16 nM
koff [2]: 7.13e-05 s⁻¹
kon [2]: 61000 M⁻¹ s⁻¹
t½ [2]: 2.7 h
Kd [5]: ≤ 0.0823 nM

B6: 12795B anti-human TfR IgG1 monoclonal antibody (antibody, V domains shown)
VH: B5 VH
VL: B5 VL
notes: Tested as bivalent IgG1 from CHO primary supernatant
Kd [7]: 1.16 nM

Other lines, results leading:

100 nM Ag Bound (RU) [1]: 9 RU
100 nM Ag Bound (RU) [2]: 1 RU
binding result [3]: no binding (tested: 100 nM)
binding result [4]: no binding (tested: 100 nM)
B1: 69332 (antibody, human IgG1, kappa, V domains shown)
VH: QVTLRESGPALVKPSQTLTLTCTFSGFSLNTYGMFVSWIRQPPGKALEWLAHIHWDDDKYYSTSLKTRLTISKDTSKNQVVLTMTNMDPVDTATYYCARGHNNLNYIIHWGQGTLVTVSS
VL: AIQMTQSPSSLSASVGDRVTITCRASQGIRNDLGWYQQKPGKAPKLLIYAASTLQSGVPSRFSGSGSGTDFTLTISSLQPEDFATYYCLQDYNYPFTFGPGTKVDIKR
notes: as for B2

Kd [6]: 41 nM
Kd [7]: 20.5 nM
B3: 69331 anti-human TfR IgG1 monoclonal antibody (antibody, V domains shown)
VH: QVQLVESGGGVVQPGRSLRLSCIASGFTFSVYGIHWVRQAPGKGLEWMAVISHDGNIKHYADSVKGRFTISRDNSKNTLYLQINSLRTEDTAVYYCAKDTWNSLDTFDIWGQGTMVTVSS
VL: B2 VL with M4L, I15V, R24W, N31S, V43A, D70E, V83F, N90Q, H91L, V94Y
notes: as for B6

100 nM Ag Bound (RU) [1]: 6 RU
100 nM Ag Bound (RU) [2]: -7 RU
binding result [3]: no binding (tested: 100 nM)
B4: 69305 (antibody, human IgG1, kappa, V domains shown)
VH: QVQLVESGGGVVQPGRSLRLSCAASGFTFSSYGMHWVRQAPGKGLEWVAVIWYDGSNKYYADSVKGRFTISRDISKNTLYLQMNSLRAEDTAVYYCAGQLDLFFDYWGQGTLVTVSS
VL: DIQMTQSPSSLSASVGDRVTITCRASQSIDRYLNWYRQKPGKAPKLLIYTTSSLQSGVPSRFSGSGSGTDFTLTLSSLQPEDFATYYCQQSYSPPLTFGGGTKVEIKR
notes: as for B2
